In patent US20200199213A1 (Eli Lilly, published 2020):
Numbering of substitutions follows the chain as printed. In names and notes the source's numbering stands. Like-named read-outs stand apart in the source and are kept apart here.

B1: Ab with LC variant having a D31S mutation (SEQ ID NO:21) and a HC of SEQ ID NO:6 (antibody, human IgG4 S228P, kappa, F234A L235A, V domains shown)
VH: QVTLKESGPTLVKPTQTLTLTCTFSGFSLSISGVGVGWIRQPPGKALEWLALIYRNDDKRYSPSLKSRLTITKDTSKNQVVLTLTNMDPVDTATYYCARTYSSGWYGNWFDPWGQGTLVTVSS
VL: DIVMTQTPLSLPVTPGEPASISCRSSQSLLSSDDGNTYLDWYLQKPGQSPQLLIYMLSYRASGVPDRFSGSGSGTDFTLKISRVEAEDVGIYYCMQRIEFPLTFGGGTKVEIKR
notes: also called D31S Variant Ab; D31S Ab
B2: Ab with LC variant having a D33A mutation (SEQ ID NO:22) and a HC of SEQ ID NO:6 (antibody, human IgG4 S228P, kappa, F234A L235A, V domains shown)
VH: B1 VH
VL: B1 VL with S31D, D33A
notes: also called D33A Variant Ab; D33A Ab

Assays:
Experiment in all cases: SPR, Biacore T200; Ab captured on Human Fab Binder, complex injected; pH 7.4, 25 C
[1] = target: T1, mouse ANGPTL3/8 complex (mouse, UniProt Q9R182 17-455; Q8R1L8 16-198, limits assumed)
T1 sequence (looked up) 1: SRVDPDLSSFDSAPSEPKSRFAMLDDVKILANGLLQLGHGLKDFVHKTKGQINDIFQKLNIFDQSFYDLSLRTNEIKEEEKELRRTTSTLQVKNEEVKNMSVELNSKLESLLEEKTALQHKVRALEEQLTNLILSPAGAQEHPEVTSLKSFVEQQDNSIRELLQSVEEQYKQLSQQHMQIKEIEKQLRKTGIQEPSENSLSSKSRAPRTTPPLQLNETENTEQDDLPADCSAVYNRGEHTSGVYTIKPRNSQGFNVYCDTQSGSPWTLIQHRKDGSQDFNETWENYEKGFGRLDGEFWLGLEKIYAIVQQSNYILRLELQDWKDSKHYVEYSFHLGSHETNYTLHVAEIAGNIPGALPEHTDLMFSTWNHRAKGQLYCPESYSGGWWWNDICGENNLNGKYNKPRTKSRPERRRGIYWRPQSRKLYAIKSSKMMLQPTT
T1 sequence (looked up) 2: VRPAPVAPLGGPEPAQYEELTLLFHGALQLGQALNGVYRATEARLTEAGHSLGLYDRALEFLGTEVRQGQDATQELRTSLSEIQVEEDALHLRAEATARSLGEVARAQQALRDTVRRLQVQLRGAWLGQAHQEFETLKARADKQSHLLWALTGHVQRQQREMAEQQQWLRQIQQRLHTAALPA

[2] = target: T2, cynomolgus ANGPTL3/8 complex (cynomolgus, UniProt A0A2K5UDC5 17-460; A0A2K5WWS3 22-198)
T2 construct: also called cyno ANGPTL3/8
T2 sequence 1: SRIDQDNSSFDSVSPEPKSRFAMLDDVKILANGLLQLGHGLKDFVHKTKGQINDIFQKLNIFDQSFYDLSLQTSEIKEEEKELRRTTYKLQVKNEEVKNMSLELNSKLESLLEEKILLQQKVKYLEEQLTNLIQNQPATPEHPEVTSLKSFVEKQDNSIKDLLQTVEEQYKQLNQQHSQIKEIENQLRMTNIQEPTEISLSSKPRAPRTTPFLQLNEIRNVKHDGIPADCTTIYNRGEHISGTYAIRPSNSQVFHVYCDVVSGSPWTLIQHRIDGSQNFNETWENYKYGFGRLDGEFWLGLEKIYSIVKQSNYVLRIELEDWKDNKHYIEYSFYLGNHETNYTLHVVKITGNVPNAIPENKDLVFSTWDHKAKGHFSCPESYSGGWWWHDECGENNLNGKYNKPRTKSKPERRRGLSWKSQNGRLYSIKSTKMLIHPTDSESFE
T2 sequence 2: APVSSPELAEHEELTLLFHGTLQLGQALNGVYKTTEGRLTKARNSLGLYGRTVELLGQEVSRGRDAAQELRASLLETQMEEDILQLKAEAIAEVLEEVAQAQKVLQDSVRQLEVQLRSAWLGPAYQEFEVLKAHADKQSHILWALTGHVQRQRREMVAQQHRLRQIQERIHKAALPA

[3] = target: T3, human ANGPTL3/8 complex (human, UniProt Q9Y5C1 17-460; Q6UXH0 22-198, limits assumed)
T3 construct: also called hANGPTL3/8 complex; ANGTPL3/8 complex
T3 sequence 1: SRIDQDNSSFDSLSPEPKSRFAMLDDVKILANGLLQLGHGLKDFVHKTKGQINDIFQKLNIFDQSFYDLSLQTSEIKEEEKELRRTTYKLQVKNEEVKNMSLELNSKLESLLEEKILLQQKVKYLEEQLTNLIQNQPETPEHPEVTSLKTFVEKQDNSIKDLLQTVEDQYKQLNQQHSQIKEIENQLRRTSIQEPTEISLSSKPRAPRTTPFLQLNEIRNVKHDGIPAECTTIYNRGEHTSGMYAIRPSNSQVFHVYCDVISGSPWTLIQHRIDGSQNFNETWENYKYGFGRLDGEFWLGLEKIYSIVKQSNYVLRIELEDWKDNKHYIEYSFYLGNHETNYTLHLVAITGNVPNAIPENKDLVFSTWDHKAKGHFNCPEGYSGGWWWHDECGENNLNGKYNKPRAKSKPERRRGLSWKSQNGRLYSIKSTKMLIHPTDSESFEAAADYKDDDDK
T3 sequence 2: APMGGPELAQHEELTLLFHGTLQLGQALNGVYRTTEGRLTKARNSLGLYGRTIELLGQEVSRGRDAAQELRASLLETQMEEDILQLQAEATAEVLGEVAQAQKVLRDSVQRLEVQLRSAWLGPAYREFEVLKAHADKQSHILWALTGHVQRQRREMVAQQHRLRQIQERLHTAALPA

[4] = target: T1, mouse ANGPTL3/8 complex; remark: listed apart in the source
[5] = target: T2, cynomolgus ANGPTL3/8 complex; remark: listed apart in the source
[6] = target: T3, human ANGPTL3/8 complex; remark: listed apart in the source

Binder | Kd [1] | koff [1] | kon [1] | Kd [2] | koff [2] | kon [2] | Kd [3] | koff [3] | kon [3] | Kd [4] | koff [4] | kon [4] | Kd [5] | koff [5] | kon [5] | Kd [6] | koff [6] | kon [6]
B1 | 218 pM | 0.000108 s⁻¹ | 496000 M⁻¹ s⁻¹ | 365 pM | 0.000168 s⁻¹ | 462000 M⁻¹ s⁻¹ | 116 pM | 5.75e-05 s⁻¹ | 497000 M⁻¹ s⁻¹ | – | – | – | – | – | – | – | – | –
B2 | – | – | – | – | – | – | – | – | – | 680 pM | 0.000347 s⁻¹ | 515000 M⁻¹ s⁻¹ | 609 pM | 0.000265 s⁻¹ | 435000 M⁻¹ s⁻¹ | 201 pM | 9.19e-05 s⁻¹ | 457000 M⁻¹ s⁻¹
